Article PMC8691596
“And” between values parts separate entries of the source, which are not always exact repeats. Equal entries are not always repeated. Where two headings read alike, the source gives them in different places.

What was measured:
[1] = molecular target: human FcRn, histidine-tagged recombinant (human) (UniProt P55899); assay: SPR; human FcRn immobilised directly on CM5 (EDC/NHS); antibody injected at 20 μg/mL (dose response in Fig 4); HBS-EP+ pH 6.0, 25°C; response normalised to wild type
Sequence of human FcRn, histidine-tagged recombinant (human) (P55899 24-297, chain 1 of 2): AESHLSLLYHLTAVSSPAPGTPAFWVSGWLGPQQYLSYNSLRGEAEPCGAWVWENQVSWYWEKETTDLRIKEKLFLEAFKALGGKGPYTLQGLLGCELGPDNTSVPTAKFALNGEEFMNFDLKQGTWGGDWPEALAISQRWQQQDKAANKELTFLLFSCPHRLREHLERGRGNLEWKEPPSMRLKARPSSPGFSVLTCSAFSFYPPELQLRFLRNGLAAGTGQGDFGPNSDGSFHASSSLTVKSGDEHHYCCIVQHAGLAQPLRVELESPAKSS
Sequence of human FcRn, histidine-tagged recombinant (human) (P61769 21-119, chain 2 of 2, further chain): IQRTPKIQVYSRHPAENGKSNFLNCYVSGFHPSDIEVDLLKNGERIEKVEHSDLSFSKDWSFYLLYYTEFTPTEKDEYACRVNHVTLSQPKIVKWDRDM

[2] = molecular target: rat FcγRI (CD64), histidine-tagged recombinant (rat); assay: SPR; His-tagged Fc receptor captured by anti-histidine antibody immobilised on CM5; antibody injected at 100 μg/mL for 1 min; response about 5 s before end of injection, blank subtracted; 25°C, HBS-EP+; Biacore T200
[3] = molecular target: mouse FcγRI (CD64), histidine-tagged recombinant (mouse) (UniProt P26151); assay: as above
Sequence of mouse FcγRI (CD64), histidine-tagged recombinant (mouse) (P26151 25-297): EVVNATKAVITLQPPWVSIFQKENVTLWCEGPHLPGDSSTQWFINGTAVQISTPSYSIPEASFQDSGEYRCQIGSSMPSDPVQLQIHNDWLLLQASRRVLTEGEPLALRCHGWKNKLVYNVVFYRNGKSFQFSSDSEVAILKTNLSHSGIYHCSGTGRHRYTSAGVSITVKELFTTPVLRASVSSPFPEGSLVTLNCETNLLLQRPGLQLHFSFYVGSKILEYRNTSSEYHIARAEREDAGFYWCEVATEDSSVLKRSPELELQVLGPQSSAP

[4] = molecular target: human FcγRI (CD64), histidine-tagged recombinant (human) (UniProt P12314); assay: as above
Sequence of human FcγRI (CD64), histidine-tagged recombinant (human) (P12314 16-292): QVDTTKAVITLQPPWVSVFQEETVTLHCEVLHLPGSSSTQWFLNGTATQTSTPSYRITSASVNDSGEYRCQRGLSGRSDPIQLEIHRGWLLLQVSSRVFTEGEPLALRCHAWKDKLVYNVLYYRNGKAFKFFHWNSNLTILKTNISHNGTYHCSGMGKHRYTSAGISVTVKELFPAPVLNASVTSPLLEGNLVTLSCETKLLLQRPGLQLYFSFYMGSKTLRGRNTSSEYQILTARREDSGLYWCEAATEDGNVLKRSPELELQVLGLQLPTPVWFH

[5] = molecular target: human FcγRIIa (CD32a) R131 allele, histidine-tagged recombinant (human) (UniProt P12318); assay: as above
Sequence of human FcγRIIa (CD32a) R131 allele, histidine-tagged recombinant (human) (P12318 34-217): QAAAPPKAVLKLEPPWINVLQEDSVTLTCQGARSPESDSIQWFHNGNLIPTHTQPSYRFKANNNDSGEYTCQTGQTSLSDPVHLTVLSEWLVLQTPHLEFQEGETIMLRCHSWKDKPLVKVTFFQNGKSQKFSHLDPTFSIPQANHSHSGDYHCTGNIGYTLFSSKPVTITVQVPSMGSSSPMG

[6] = molecular target: human FcγRIIIb (CD16b) NA2 allele, histidine-tagged recombinant (human) (UniProt O75015); assay: as above
Sequence of human FcγRIIIb (CD16b) NA2 allele, histidine-tagged recombinant (human) (O75015 17-200): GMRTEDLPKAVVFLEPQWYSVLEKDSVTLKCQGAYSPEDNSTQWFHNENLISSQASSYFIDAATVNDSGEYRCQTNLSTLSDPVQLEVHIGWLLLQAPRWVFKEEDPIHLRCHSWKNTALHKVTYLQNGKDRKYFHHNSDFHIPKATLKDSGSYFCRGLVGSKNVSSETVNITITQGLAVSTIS

[7] = molecular target: human FcγRIIIa (CD16a) F158 allele, histidine-tagged recombinant (human) (UniProt P08637); assay: as above
Sequence of human FcγRIIIa (CD16a) F158 allele, histidine-tagged recombinant (human) (P08637 17-208): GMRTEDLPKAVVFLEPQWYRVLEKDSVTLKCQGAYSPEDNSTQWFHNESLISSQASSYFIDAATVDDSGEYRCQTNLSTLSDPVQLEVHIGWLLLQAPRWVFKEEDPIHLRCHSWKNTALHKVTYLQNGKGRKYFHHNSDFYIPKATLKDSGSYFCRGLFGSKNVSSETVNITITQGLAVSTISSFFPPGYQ

[8] = molecular target: human FcγRIIIa (CD16a) V158 allele, histidine-tagged recombinant (human) (UniProt P08637); assay: as above
Sequence of human FcγRIIIa (CD16a) V158 allele, histidine-tagged recombinant (human) (P08637 17-208): as above

[9] = molecular target: human FcγRIIb (CD32b), histidine-tagged recombinant (human) (UniProt P31994); assay: as above
Sequence of human FcγRIIb (CD32b), histidine-tagged recombinant (human) (P31994 43-217): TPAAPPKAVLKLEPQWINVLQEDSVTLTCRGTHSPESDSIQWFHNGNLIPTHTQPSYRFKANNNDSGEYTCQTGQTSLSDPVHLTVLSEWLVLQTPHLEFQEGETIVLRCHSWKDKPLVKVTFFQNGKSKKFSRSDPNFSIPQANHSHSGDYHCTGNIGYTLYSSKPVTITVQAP

[10] = molecular target: human FcγRIIIa (CD16a) V158 allele, histidine-tagged recombinant (human) (UniProt P08637)
[11] = molecular target: human FcγRIIb (CD32b), histidine-tagged recombinant (human) (UniProt P31994)
[12] = molecular target: human FcγRI (CD64), histidine-tagged recombinant (human) (UniProt P12314)
[13] = molecular target: human FcγRI (CD64), histidine-tagged recombinant (human) (UniProt P12314); assay: SPR; His-tagged Fc receptor captured by anti-histidine antibody immobilised on CM5; antibody injected at 100 μg/mL for 1 min; response about 5 s before end of injection, blank subtracted; 25°C, HBS-EP+; Biacore T200; remark: listed apart in the source

Row | Substance | mean normalised binding response (% of wild-type reference) [1] [%] | mean response [2] [RU] | mean response [3] [RU] | mean response [4] [RU] | mean response [5] [RU] | mean response [6] [RU] | mean response [7] [RU] | mean response [8] [RU] | mean response [9] [RU] | Mean normalised luminescence (% of wild-type reference); Promega Fc effector bioassay, Jurkat NFAT-luciferase cells with the receptor + Raji cells, antibody 10 μg/mL [10] [%] | Mean normalised luminescence (% of wild-type reference); Promega Fc effector bioassay, Jurkat NFAT-luciferase cells with the receptor + Raji cells, antibody 10 μg/mL [11] [%] | Mean normalised luminescence (% of wild-type reference); Promega Fc effector bioassay, Jurkat NFAT-luciferase cells with the receptor + Raji cells, antibody 10 μg/mL [12] [%] | mean response [13] [RU] | response [13]
1 | anti-CD52 IgG1 L234A/L235A/P329G (LALAPG) (antibody) | 105 | -0.8 | -2.1 | 33.7 | – | – | – | – | – | – | – | – | – | –
2 | anti-CD52 IgG1 L234T/L235T/G236R (antibody) | 118 | -3.4 | -3.9 | -20.7 | -8.7 | 0.8 | -1.9 | -2 | -0.1 | – | – | – | – | –
3 | anti-CD52 IgG1 L234G/L235S/G236R (antibody) | 118 | -1.7 | -2.3 | -3.5 | -3.5 | -4.8 | -4.2 | -2.4 | -5.5 | – | – | – | – | –
4 | anti-CD3 IgG1 L234S/L235T/G236R (antibody) | – | -5.1 | -7.5 | -5.2 | 1.4 | 4.7 | 3.3 | -11.3 | 3.9 | – | – | – | – | –
5 | anti-CD3 IgG1 L234T/L235Q/G236R (antibody) | – | -2.4 | -5.8 | -3.2 | -0.2 | -3 | -0.9 | -10.7 | -2.8 | – | – | – | – | –
6 | anti-CD3 IgG1 L234T/L235T/G236R (antibody) | – | -3.5 | -5.5 | -3.1 | -2.8 | -4.4 | -2 | -8.6 | -3.3 | – | – | – | – | –
7 | anti-CD20 IgG1 L234T/L235Q/G236R (antibody) | – | -2.5 | -4.1 | -1.9 | 0.2 | -1.5 | -0.5 | -4 | -1.1 | 2.1 | 1.7 | 1.9 | 3 | 4.5 RU
8 | anti-CD3 IgG1 L234S/L235V/G236R (antibody) | – | -4.8 | -8.1 | -5.4 | -3.4 | -4.8 | -3.4 | -12.7 | -4.2 | – | – | – | – | –
9 | anti-CD52 IgG1 L234T/L235Q/G236R (antibody) | 115 | 0.5 | -1.4 | -10.6 | -2.2 | 0.4 | 0.7 | -3.1 | 1.3 | – | – | – | – | –
10 | anti-CD20 IgG1 L234S/L235T/G236R (antibody) | – | -2.4 | -5.4 | -1.3 | 2.6 | -3 | 1.9 | -6.3 | 0.5 | – | – | – | – | –
11 | anti-CD3 IgG1 L234G/L235S/G236R (antibody) | – | -4.2 | -5.9 | -5.2 | -4.8 | -6.4 | -4.7 | -14.4 | -5.1 | – | – | – | – | –
12 | anti-CD20 IgG1 L234A/L235A (LALA) (antibody) | – | -5.3 | -12.2 | – | – | – | – | – | – | – | 40.6 | – | – | –
13 | anti-CD3 IgG1 L234A/L235A (LALA) (antibody) | – | -4.9 | -3.3 | – | – | – | – | – | – | – | – | – | – | –
14 | anti-CD52 IgG1 L234S/L235T/G236R (antibody) | 116 | -2.9 | -4.6 | -5.1 | -3.1 | -4.3 | -3.3 | -5.6 | -4.4 | – | – | – | – | –
15 | anti-CD52 IgG1 N297Q (aglycosyl) (antibody) | 103 | – | 50.4 | 431 | – | – | – | – | – | – | – | – | – | –
16 | anti-CD20 IgG1 N297Q (aglycosyl) (antibody) | – | – | – | – | – | – | – | – | – | – | 1.6 | – | – | –
17 | anti-CD52 IgG1 L234A/L235A (LALA) (antibody) | 105 | -0.7 | 1.8 | 452 | – | – | – | – | – | – | – | – | – | –
18 | anti-CD3 IgG1 L234A/L235A/P329G (LALAPG) (antibody) | – | -5.2 | -6.2 | – | – | – | – | – | – | – | – | – | – | –
19 | anti-CD20 IgG1 L234A/L235A/P329G (LALAPG) (antibody) | – | 0.7 | 2.4 | – | – | – | – | – | – | 2.1 | 1.7 | – | – | –
20 | anti-CD20 IgG1 L234S/L235V/G236R (antibody) | – | -0.4 | 0.1 | -1.6 | 0.3 | 0.6 | 0 | 0.8 | -0.8 | 2.1 | 1.7 | 1.9 | 2.4 | 2.1 RU and 4.3 RU
21 | anti-CD20 IgG1 L234T/L235T/G236R (antibody) | – | -0.8 | – | -2.7 | 1.9 | -0.1 | 1.6 | -0.2 | 0.6 | – | 1.9 | 1.9 | – | –
22 | anti-CD52 IgG1 L234S/L235V/G236R (antibody) | 119 | -2.1 | -2.5 | -20.3 | -4.2 | 2.6 | 2.2 | -1.3 | 2.4 | – | – | – | – | –
23 | anti-CD20 IgG1 L234G/L235S/G236R (antibody) | – | -3.9 | -2.1 | -1.5 | 2.1 | -1.6 | 1 | 1 | -0.1 | 2.5 | 1.7 | – | 1.9 | –
